Laboratory results reported in patent US20260070986A1 (AFFIMED, published 2026).

Columns and labels:
[1] = target: T1, cynomolgus CD16 on transfected CHO cells (cAg_36) (cynomolgus, UniProt Q8SPW2 17-254); test: flow cytometry on cyCD16 CHO cells (cAg_36), one-site fit of MFI, mean
T1 construct: whole, on cells; also called cyCD16
Procedure: (§1) After washing in FACS buffer, cells were incubated in 50 μL FACS buffer without antibodies or with titrated antibodies starting at a concentration of 1000 nM followed by elven 3-fold serial dilutions for 40-50 min on ice in the dark. After washing twice, cells were incubated with FITC-conjugated goat anti-human IgG (H+L) (Jackson Immunologies, cat.: 109-096-088) for 40-50 min on ice in the dark. […] After washing, binding was measured by flow cytometry and mean fluorescence intensities (MFI) of cell samples were calculated and corrected for background staining using control cells stained with secondary antibodies only.
(§2) Equilibrium dissociation constants (KD) of antibody binding were calculated by plotting MFI values and fitting a non-linear regression model for one-site binding to hyperbolic dose-response curves using GraphPad Prism.

[2] = target: T1, cynomolgus CD16 on transfected CHO …; test: flow cytometry on cyCD16 CHO cells (cAg_36), one-site fit of MFI, Exp. 1
Procedure: (§3) After washing twice, cells were incubated with FITC-conjugated goat anti-human IgG (H+L) (Jackson Immunologies, cat.: 109-096-088) for 40-50 min on ice in the dark. […] After washing, binding was measured by flow cytometry and mean fluorescence intensities (MFI) of cell samples were calculated and corrected for background staining using control cells stained with secondary antibodies only.
as §2

[3] = target: T1, cynomolgus CD16 on transfected CHO …; test: flow cytometry on cyCD16 CHO cells (cAg_36), one-site fit of MFI, Exp. 2
Procedure: as §1, §2

[4] = target: T1, cynomolgus CD16 on transfected CHO …; test: flow cytometry on cyCD16 CHO cells (cAg_36), one-site fit of MFI, Exp. 3
Procedure: as §3, §2

[5] = target: T2, human CD16A (158F) on transfected CHO cells (cAg_34) (human, UniProt P08637 17-254); test: flow cytometry on huCD16A (158F) CHO cells (cAg_34), one-site fit of MFI, mean
T2 construct: Exact cell-anchored construct not described; also called huCD16A
T2 sequence (P08637 17-254 limits assumed): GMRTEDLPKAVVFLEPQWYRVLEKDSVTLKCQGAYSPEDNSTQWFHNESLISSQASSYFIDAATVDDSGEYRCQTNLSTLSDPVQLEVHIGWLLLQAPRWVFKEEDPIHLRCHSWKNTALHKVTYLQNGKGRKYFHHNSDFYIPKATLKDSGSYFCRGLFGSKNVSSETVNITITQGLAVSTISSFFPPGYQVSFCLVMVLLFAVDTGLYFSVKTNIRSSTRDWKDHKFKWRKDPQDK
Procedure: as §3, §2

[6] = target: T2, human CD16A (158F) on transfected CHO …; test: flow cytometry on huCD16A (158F) CHO cells (cAg_34), one-site fit of MFI, Exp. 1
Procedure: as §3, §2

[7] = target: T2, human CD16A (158F) on transfected CHO …; test: flow cytometry on huCD16A (158F) CHO cells (cAg_34), one-site fit of MFI, Exp. 2
Procedure: as §3, §2

[8] = target: T2, human CD16A (158F) on transfected CHO …; test: flow cytometry on huCD16A (158F) CHO cells (cAg_34), one-site fit of MFI, Exp. 3
Procedure: as §3, §2

[9] = target: T1, cynomolgus CD16 on transfected CHO …; test: flow cytometry on cyCD16-transfected CHO cells (cAg_36), anti-human IgG-FITC detection
Procedure: as §1

[10] = target: T2, human CD16A (158F) on transfected CHO …; test: flow cytometry on huCD16A (158F)-transfected CHO cells (cAg_34), anti-human IgG-FITC detection
Procedure: as §1

T1 sequence (Q8SPW2 17-254): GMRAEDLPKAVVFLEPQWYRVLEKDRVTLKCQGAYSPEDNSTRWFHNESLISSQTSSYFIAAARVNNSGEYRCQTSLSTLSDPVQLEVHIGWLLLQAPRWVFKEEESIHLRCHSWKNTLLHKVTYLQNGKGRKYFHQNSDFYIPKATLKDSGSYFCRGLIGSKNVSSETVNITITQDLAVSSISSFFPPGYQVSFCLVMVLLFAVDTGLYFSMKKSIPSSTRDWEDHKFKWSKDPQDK

B1: scFv-IgAb_381 (Target specificity x CD16A, CD16a4) (bispecific antibody)
chain 1: EVQLVESGGGVVQPGRSLRLSCSASGFTFSGYGLSWVRQAPGKGLEWVAMISSGGSYTYYADSVKGRFAISRDNAKNTLFLQMDSLRPEDTGVYFCARHGDDPAWFAYWGQGTPVTVSSASTKGPSVFPLAPSSKSTSGGTAALGCLVKDYFPEPVTVSWNSGALTSGVHTFPAVLQSSGLYSLSSVVTVPSSSLGTQTYICNVNHKPSNTKVDKKVEPKSCDKTHTCPPCPAPEFEGGPSVFLFPPKPKDTLMISRTPEVTCVVVAVSHEDPEVKFNWYVDGVEVHNAKTKPREEQYNSTYRVVSVLTVLHQDWLNGKEYKCKVSNKALPAPIEKTISKAKGQPREPQVYTLPPSREEMTKNQVSLTCLVKGFYPSDIAVEWESNGQPENNYKTTPPVLDSDGSFFLYSKLTVDKSRWQQGNVFSCSVMHEALHNHYTQKSLSLSPGGGGGSGGGGSGGGGSGGGGSGGGGSGGGGSSYELTQPLSVSVALGQTARITCGGHNIGSKNVHWYQQKPGQAPVLVIYQDNKRPSGIPERFSGSNSGNTATLTISRAQAGDEADYYCQVWDNYNVLFGCGTKLTVLGGSGGSGGSGGSGGSGGSGGSQVQLVQSGAEVKKPGASVKVSCKASGYTFTSYYMHWVRQAPGQCLEWMGAIEPTYGSTSYAQKFQGRVTMTRDTSTSTVYMELSSLRSEDTAVYYCARGSAYYYDFADYWGQGTLVTVS
chain 2: DIQLTQSPSSLSASVGDRVTITCSVSSSISSNNLHWYQQKPGKAPKPWIYGTSNLASGVPSRFSGSGSGTDYTFTISSLQPEDIATYYCQQWSSYPYMYTFGQGTKVEIKRTVAAPSVFIFPPSDEQLKSGTASVVCLLNNFYPREAKVQWKVDNALQSGNSQESVTEQDSKDSTYSLSSTLTLSKADYEKHKVYACEVTHQGLSSPVTKSFNRGEC
Kd [1]: 32.8 nM | Kd [2]: 38.6 nM | Kd [3]: 31.7 nM | Kd [4]: 28.2 nM | Kd [5]: 26.2 nM | Kd [6]: 22.1 nM | Kd [7]: 29.3 nM | Kd [8]: 27.1 nM | EC50 (read off the curve) [9]: ~40 nM | EC50 (read off the curve) [10]: ~30 nM
